According to US20250171545A1:

Target: hFGFR1c and hKLB co-expressed on HEK293 cells (human) (UniProt P11362)
Assay: cell-based or functional assay

- % activation, SRE-luciferase reporter, normalized against soluble FGF21: 19%
Substance: REGN4366 (bispecific antibody)
